Results on 5 substances are retold here after patent US20240165282A1, “CONFORMATIONAL CONSTRAINED SOMATOSTATIN RECEPTOR 3 PEPTIDE LIGANDS AND THEIR CONJUGATES AND USES THEREOF” (STARGET PHARMA LTD., priority 2021, published 2024).

“And” between values parts separate entries of the source, which are not always exact repeats. Equal values may be shown once. *1 amine or outer side, *2 acyl side, *3 side chain or, on linkers, in order; H or OH if unused. Bridges are numbered along the chain shown (N, C = ends). [ ]: non-standard residue; d: D form. The star is where a group is joined. DOTA = O=C(O)CN1CCN(CC(=O)O)CCN(CC(=O)*)CCN(CC(=O)O)CC1; N(2-mercaptoethyl)Gly = O=C(CN(CCS[*:3])[*:1])[*:2]; GABA = NCCCC(=O)O Bounds are passed on as bounds.

One assay deals with SSTR1 (Homo sapiens, UniProt P30872). The assay is described as follows: Radioligand binding, displacement of 125I-Tyr11-SRIF-14. On the set-up: host or cells: CHO (Chinese Hamster Ovary) cells, membrane preparation. Conditions: hSSTR-1. The text has this:
(§1) The binding to human cloned receptors SSTR-1, or SSTR-2 or SSTR-3 evaluated in stable and selective transfected CHO (Chinese Hamster Ovary) cells and binding to STSR-4 and SSTR-5 in stable and selective transfected Chem-1 (Rat ChemiSCREEN) cells. […] The binding reactions were filtered, the filters were washed, and the bound radioactivity was counted using a gamma counter.
(§2) The following table depicts the conditions of binding assay to each of the somatostatin receptors used for the evaluations of binding affinities of the tested peptides. All assays were performed by quantitation method of radioligand binding under 25° C. The vehicle was 1% DMSO, the incubation buffer was 25 mM HEPES, pH 7.4, 5 mM MgCl2, 1 mM CaCl2, 0.1% BSA. […] The significance criteria were >50% of max inhibition. […] This specific binding data used for calculation of Bmax values which is the concentration of each of the expressed cloned receptor in its transfected cell system.
(§3) The Results of IC50 values were determined by a non-linear, least squares regression analysis using MathIQ™ (ID Business Solutions Ltd., UK). […] The Hill coefficient (nH), defining the slope of the competitive binding curve, was calculated using MathIQ™.
For orientation: Loss of bound radioactivity is the signal in a displacement assay; it reports binding, not function.

The target in another assay is SSTR2 (Homo sapiens, UniProt P30874). The description is as above. More on the design: host or cells: CHO (Chinese Hamster Ovary) cells, membrane preparation. The following applies: hSSTR-2.
From the text: as §1, §2, §3

The target in the next assay is SSTR3 (Homo sapiens, UniProt P32745). The assay is described as above. On the set-up: host or cells: CHO (Chinese Hamster Ovary) cells, membrane preparation. The following applies: for affinity and selectivity to SSTR3 (in words): binding data; for % displacement of [^125I] Tyr^11-SRIF-14: hSSTR-3.
From the text: as §1, §2, §3

The next assay deals with SSTR5 (Homo sapiens, UniProt P35346). Described as above. On the set-up: host or cells: Chem-1 (Rat ChemiSCREEN) cells, membrane preparation. The following applies: hSSTR-5.
From the text: as §1, §2, §3

The next assay concerns the target T1, hSSTR-4 (Homo sapiens, UniProt P31391).
T1 construct: host or cells: Chem-1 (Rat ChemiSCREEN) cells, membrane preparation
Described as above. The following applies: hSSTR-4.
From the text: as §1, §2, §3

In a further assay the test system is SSTR3-tGFP-U2OS cells. The assay is described as follows: Cellular internalization of 177Lu radiolabeled compounds. It counts as cell-based, human. Conditions: 4 h. The procedure: In order to evaluate the cellular internalization of the ^177Lu radiolabeled SEQ ID NO: 6 in comparison to SEQ ID NO: 19 in SSTR3 transfected human cancer cell line to predict the tumor uptake of the radiolabeled compounds, the following example was performed.
Comparative SSTR3 receptor mediated internalization, was determined by incubation of the cultivate cancer cells with the ^177Lu radiolabeled compounds and determination of cellular uptake following washes of the cell culture. To evaluate the internalization as a receptor mediated process, the same experiments were performed in the presence of high concentration of cold SSTR3 ligands.
U2OS cells grow as a monolayer at +37° C. in a humidified atmosphere (5% CO2, 95% air). U2OS cancer cells are adherent to plastic flasks. For experimental use, these cancer cells are detached from the culture flask by a 5-minute treatment with trypsin-versene, in Hanks' medium without calcium or magnesium and neutralized by addition of complete culture medium.
The assay was performed as follows: Transfected human osteosarcoma cells SSTR3-tGFP-U2OS were plated in 6 well plate, 24 hours before the assay to have 80-90% confluency at the day of the assay. 30 minutes before the assay, medium was removed, and cells were washed with tempered Dulbecco's Phosphate Buffered Saline (DPBS, Sigma) and fresh medium (250 μL) is added. For total cellular uptake, 20 nM of the radioligand SEQ ID NO: 6 or SEQ ID NO: 19 were diluted in cell medium (250 μL) added to each well, in triplicate (final radioligand concentration: 10 nM). For non-specific binding, 20 μM (1000 in excess) of cold SEQ ID NO: 4 or cold SEQ ID NO: 6 or SEQ ID NO: 1 and 20 nM of ^177Lu-DOTA-PTR-58 radioligand solution in cell medium (250 μL) were added to each well, in triplicate (final cold peptide concentration: 10 μM; final radioligand concentration: 10 nM). The plates were incubated for 4 hours at +37° C. (air containing 5% CO2, humidified atmosphere). At the end of incubation, the plates were placed on ice to stop any internalization process. The medium, containing the free radioligand fraction, was collected and the cells were washed twice (2×750 μL) with ice-cold DPBS. The medium and the PBS washes were collected in the same vial from each well (final volume […]). The radioactivity of the cell pellets was counted by gamma counter and represents the cellular uptake as percentage of the administrated radioactivity. The radioactivity readouts of the wash-media were used for mass balance.

SSTR2, sequence (P30874 whole entry): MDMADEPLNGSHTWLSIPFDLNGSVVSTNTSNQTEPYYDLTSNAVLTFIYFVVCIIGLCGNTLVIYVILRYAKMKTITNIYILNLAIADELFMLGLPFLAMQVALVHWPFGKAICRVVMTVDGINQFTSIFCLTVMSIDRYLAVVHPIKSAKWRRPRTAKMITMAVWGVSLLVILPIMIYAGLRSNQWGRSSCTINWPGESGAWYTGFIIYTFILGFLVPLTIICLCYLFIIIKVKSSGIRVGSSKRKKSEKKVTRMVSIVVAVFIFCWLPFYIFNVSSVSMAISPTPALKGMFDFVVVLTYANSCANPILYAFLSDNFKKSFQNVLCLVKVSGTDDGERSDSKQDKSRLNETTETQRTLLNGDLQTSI
SSTR1, sequence (P30872 whole entry): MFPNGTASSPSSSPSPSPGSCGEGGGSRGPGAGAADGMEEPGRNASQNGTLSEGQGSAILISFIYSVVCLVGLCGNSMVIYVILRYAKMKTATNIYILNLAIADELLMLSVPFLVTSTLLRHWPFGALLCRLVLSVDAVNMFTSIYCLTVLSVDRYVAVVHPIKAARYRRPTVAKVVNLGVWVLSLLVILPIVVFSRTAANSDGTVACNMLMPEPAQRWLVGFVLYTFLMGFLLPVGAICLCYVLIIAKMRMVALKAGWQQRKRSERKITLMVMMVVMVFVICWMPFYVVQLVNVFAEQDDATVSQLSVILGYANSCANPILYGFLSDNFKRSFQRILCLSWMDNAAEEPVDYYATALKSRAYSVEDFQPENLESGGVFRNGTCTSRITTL
T1 sequence (P31391 whole entry): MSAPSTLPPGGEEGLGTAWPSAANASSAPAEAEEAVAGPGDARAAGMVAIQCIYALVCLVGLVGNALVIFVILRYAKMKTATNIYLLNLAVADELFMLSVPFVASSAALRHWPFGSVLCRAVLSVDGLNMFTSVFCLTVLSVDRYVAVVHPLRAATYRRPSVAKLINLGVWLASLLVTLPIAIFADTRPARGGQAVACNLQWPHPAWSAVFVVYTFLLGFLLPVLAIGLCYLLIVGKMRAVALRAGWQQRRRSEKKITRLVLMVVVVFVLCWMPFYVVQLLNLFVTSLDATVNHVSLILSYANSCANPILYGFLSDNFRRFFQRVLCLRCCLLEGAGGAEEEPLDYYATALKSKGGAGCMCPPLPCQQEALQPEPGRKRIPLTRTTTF
SSTR3, sequence (P32745 whole entry): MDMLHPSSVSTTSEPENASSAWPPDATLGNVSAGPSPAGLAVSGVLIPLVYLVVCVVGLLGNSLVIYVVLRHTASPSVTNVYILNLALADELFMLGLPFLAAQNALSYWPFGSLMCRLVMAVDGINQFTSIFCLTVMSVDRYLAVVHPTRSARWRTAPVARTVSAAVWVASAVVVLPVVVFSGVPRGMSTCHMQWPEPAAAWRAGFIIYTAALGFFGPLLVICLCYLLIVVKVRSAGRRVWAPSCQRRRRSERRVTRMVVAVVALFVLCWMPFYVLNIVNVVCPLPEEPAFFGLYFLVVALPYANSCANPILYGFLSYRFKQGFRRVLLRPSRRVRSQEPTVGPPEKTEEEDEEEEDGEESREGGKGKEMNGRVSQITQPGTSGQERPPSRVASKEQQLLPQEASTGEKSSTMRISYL
SSTR5, sequence (P35346 whole entry): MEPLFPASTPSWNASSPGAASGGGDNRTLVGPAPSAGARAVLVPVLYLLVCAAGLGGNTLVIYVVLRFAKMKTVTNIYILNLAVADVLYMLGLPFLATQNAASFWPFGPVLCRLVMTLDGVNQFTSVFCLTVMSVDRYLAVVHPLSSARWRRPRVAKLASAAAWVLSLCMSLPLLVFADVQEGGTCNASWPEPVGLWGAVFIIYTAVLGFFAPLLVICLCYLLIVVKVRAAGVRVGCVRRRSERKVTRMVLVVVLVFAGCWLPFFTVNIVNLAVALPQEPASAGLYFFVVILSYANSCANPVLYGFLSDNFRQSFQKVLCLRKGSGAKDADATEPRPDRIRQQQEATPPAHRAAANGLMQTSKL

With “H-Arg^1-Gly^2-Asp^3-D-Phe^4-Arg^5-Cys^6-Phe^7-D-Trp^8-Lys^9-Thr^10-Phe^11 -NTEG^12-NH^2 (cyclo 6-12) (H-RGD[dF]RCF[dW]KTF[N(2-mercaptoethyl)Gly]-NH2; disulfide 6-12; SMILES C[C@@H](O)[C@@H]1NC(=O)[C@H](CCCCN)NC(=O)[C@@H](Cc2c[nH]c3ccccc23)NC(=O)[C@H](Cc2ccccc2)NC(=O)[C@@H](NC(=O)[C@H](CCCNC(=N)N)NC(=O)[C@@H](Cc2ccccc2)NC(=O)[C@H](CC(=O)O)NC(=O)CNC(=O)[C@@H](N)CCCNC(=N)N)CSSCCN(CC(N)=O)C(=O)[C@H](Cc2ccccc2)NC1=O) [SEQ ID NO: 13]”, the “% displacement of [^125I] Tyr^11-SRIF-14” value in the assay with SSTR1 (at 1 nM (in brackets)) was 9%; with SSTR1 (at 10 nM), 15%; with SSTR2 (at 1 nM (in brackets)), 0%; with SSTR2 (at 10 nM), 12%; with SSTR3 (at 1 nM (in brackets)) it was 36%; with SSTR3 (at 10 nM), 78%. The “% displacement of [^125I] Tyr^11-SRIF-14” value is 0% with SSTR5 (at 1 nM (in brackets)), 4% in the assay with SSTR5 (at 10 nM), 0(0) % with hSSTR-4 (at 1 nM (in brackets)) and 0(0) % with hSSTR-4 (at 10 nM). Moreover, the “affinity and selectivity to SSTR3 (in words)” value (from here on “affinity and selectivity”) with SSTR3 is “did not interfere with the affinity and selectivity of SEQ ID NO: 3 to SSTR3”.

With “H-Phe^1-Arg^2-Cys^3-Phe^4-D-Trp^5-Lys^6-Thr^7-Tyr^8-NTEG^9-NH2 (cyclo 3-9) (H-XRCF[dW]KTY[N(2-mercaptoethyl)Gly]-NH2; disulfide 3-9; not fully specified (residue 1); printed as H-Phe1-Arg2-Cys3-Phe4-D-Trp5-Lys6-Thr7-Tyr8-NTEG9-NH2 (cyclo 3-9)) [SEQ ID NO: 26]”, the “% displacement of [^125I] Tyr^11-SRIF-14” value with SSTR1 (at 1 nM (in brackets)) is on record as 0%; with SSTR1 (at 10 nM), 24%; with SSTR2 (at 1 nM (in brackets)), 0(0) %; in the assay with SSTR2 (at 10 nM) it was 0(0) %; with SSTR3 (at 1 nM (in brackets)), 53%; in the assay with SSTR3 (at 10 nM) it was 86%. The “% displacement of [^125I] Tyr^11-SRIF-14” value with SSTR5 (at 1 nM (in brackets)) was 0%; with SSTR5 (at 10 nM) it was 1%; with hSSTR-4 (at 1 nM (in brackets)), 0(0) %; with hSSTR-4 (at 10 nM), 0(0) %.

Take “Niraparib-CO(CH2)3CO-D-Phe^1-Arg^2-Cys^3-Phe^4-D-Trp^5-Lys^6-Thr^7-Phe^8-NTEG^9-NH2 cyclo 3-9 [SEQ ID NO: 28]”: the “% displacement of [^125I] Tyr^11-SRIF-14” value was 12% on SSTR1 (at 1 nM (in brackets)); 23% at SSTR1 (at 10 nM); 0(0) % on SSTR2 (at 1 nM (in brackets)); 0(0) % at SSTR2 (at 10 nM); 28% at SSTR3 (at 1 nM (in brackets)); 79% on SSTR3 (at 10 nM). The “% displacement of [^125I] Tyr^11-SRIF-14” value on SSTR5 (at 1 nM (in brackets)), on SSTR5 (at 10 nM), on hSSTR-4 (at 1 nM (in brackets)) and on hSSTR-4 (at 10 nM) was 0(0) % in each case. For the same substance, the “affinity to SSTR3” value on SSTR3 is given as not above 10 nM. Also, the “affinity and selectivity” value on SSTR3 is recorded as “the same selectivity to SSTR3 as SEQ ID NO: 1”.

With “^177Lu -SEQ ID NO: 6 ({DOTA}-[dF]RCF[dW]KTF[N(2-mercaptoethyl)Gly]-NH2; disulfide 3-9; also: 177Lu complex of DOTA)”, the “% Total cellular uptake” value in the assay with SSTR3-tGFP-U2OS cells (177Lu radiolabeled, 10 nM, no blocking) was 15.5 ± 0.28% and 22.1 ± 0.5%; in the assay with SSTR3-tGFP-U2OS cells (177Lu radiolabeled, 10 nM, no blocking, listed as 177Lu radiolabeled SEQ ID NO. 6), 22%; with SSTR3-tGFP-U2OS cells (+ SEQ ID NO: 4 (cold 69/71Ga for blocking)) it was 0.9 ± 0.02%; in the assay on SSTR3-tGFP-U2OS cells (+ SEQ ID NO: 6 (cold 175Lu for blocking)) it was 0.6 ± 0.02%.

As to “gallium labelled DOTA-GABA-D-Phe^1-Arg^2-Cys^3-Phe^4-D-Trp^5-Lys^6-Thr^7-Phe^8-NTEG^9-NH2 (cyclo 3-9) ({DOTA-GABA}-[dF]RCF[dW]KTF[N(2-mercaptoethyl)Gly]-NH2; disulfide 3-9; also: gallium complex of DOTA) [SEQ ID NO: 8]”, the “% displacement of [^125I] Tyr^11-SRIF-14” value with SSTR1 (at 1 nM (in brackets)) came to 0%; in the assay with SSTR1 (at 10 nM), 10%; with SSTR2 (at 1 nM (in brackets)) it was 0%; in the assay with SSTR2 (at 10 nM) it was 10%; with SSTR3 (at 1 nM (in brackets)), 61%; with SSTR3 (at 10 nM), 88%. For the same substance, the “% displacement of [^125I] Tyr^11-SRIF-14” value in the assay with SSTR5 (at 1 nM (in brackets)) was determined as 0%; with SSTR5 (at 10 nM), 15%; in the assay with hSSTR-4 (at 1 nM (in brackets)), 5%; with hSSTR-4 (at 10 nM) it was 4%. The “affinity and selectivity” value in the assay with SSTR3 is “maintains the same affinity and selectivity to SSTR3 as SEQ ID NO. 1, and SEQ ID NO. 3-7”.
